Laboratory results from the supplement of paper PMC9112550, “Optimization of the antimicrobial peptide Bac7 by deep mutational scanning” (BMC Biology, 2022).

tested on: Escherichia coli TOP10; test: shrunken log2 fold change of peptide-encoding DNA abundance (4.5 h post-induction vs induction); higher = less antimicrobial activity (less host growth inhibition); settings: time post-induction: 4.5 h; library: site-saturation at positions 5, 18, 19, 20
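Further: peptides expressed intracellularly from a pBAD plasmid library in pooled LB shake-flask culture, induced with 0.3% L-arabinose, DNA abundance read by NGS, three biological replicates, DESeq2 with apeglm shrinkage.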

Row | Sequence | shrunken log2 fold change
1 | RRIRWRPPRLPRPRPRPWKAPRP | -0.00884
2 | RRIRWRPPRLPRPRPRPSQKPRP | -0.0621
3 | RRIRWRPPRLPRPRPRPLVQPRP | 0.23
4 | RRIRYRPPRLPRPRPRPNTKPRP | -0.0891
5 | RRIRLRPPRLPRPRPRPTCKPRP | -0.0465
6 | RRIRKRPPRLPRPRPRPCRAPRP | 0.57
7 | RRIRCRPPRLPRPRPRPLVTPRP | -0.195
8 | RRIRKRPPRLPRPRPRPPHSPRP | 0.509
9 | RRIRLRPPRLPRPRPRPFQTPRP | -0.0347
10 | RRIRSRPPRLPRPRPRPLSCPRP | 0.0284
11 | RRIRRRPPRLPRPRPRPDGVPRP | 0.268
12 | RRIRARPPRLPRPRPRPWQGPRP | 0.0405
13 | RRIRVRPPRLPRPRPRPWFVPRP | -0.475
14 | RRIRDRPPRLPRPRPRPTAMPRP | 0.858
15 | RRIRARPPRLPRPRPRPQMMPRP | 0.129
16 | RRIRRRPPRLPRPRPRPRNHPRP | -0.0441
17 | RRIRLRPPRLPRPRPRPKLDPRP | -0.0265
18 | RRIRWRPPRLPRPRPRPTPRPRP | 0.851
19 | RRIRYRPPRLPRPRPRPCGGPRP | 0.00427
20 | RRIRFRPPRLPRPRPRPELRPRP | -0.0629
21 | RRIRRRPPRLPRPRPRPVWSPRP | -0.103
22 | RRIRGRPPRLPRPRPRPQLWPRP | 0.928
23 | RRIRVRPPRLPRPRPRPEQGPRP | 0.0379

Row | Sequence | shrunken log2 fold change
24 | RRIRSRPPRLPRPRPRPGHPPRP | 0.0456
25 | RRIRIRPPRLPRPRPRPPFRPRP | -0.0473
26 | RRIRTRPPRLPRPRPRPNKFPRP | -0.37
27 | RRIRWRPPRLPRPRPRPMNYPRP | -0.364
28 | RRIRARPPRLPRPRPRPKAAPRP | 0.878
29 | RRIRCRPPRLPRPRPRPIILPRP | -0.354
30 | RRIRDRPPRLPRPRPRPNMFPRP | -0.0684
31 | RRIRQRPPRLPRPRPRPGFWPRP | 0.353
32 | RRIRVRPPRLPRPRPRPEFQPRP | -0.0311
33 | RRIRDRPPRLPRPRPRPCHVPRP | -0.0466
34 | RRIRCRPPRLPRPRPRPFHFPRP | -0.954
35 | RRIRIRPPRLPRPRPRPRCAPRP | 0.204
36 | RRIRQRPPRLPRPRPRPAYMPRP | -0.263
37 | RRIRDRPPRLPRPRPRPNPSPRP | 0.13
38 | RRIRHRPPRLPRPRPRPQKTPRP | 0.00246
39 | RRIRDRPPRLPRPRPRPEYKPRP | 0.27
40 | RRIRLRPPRLPRPRPRPCIEPRP | -0.256
41 | RRIRLRPPRLPRPRPRPMTTPRP | 0.0748
42 | RRIRYRPPRLPRPRPRPQQFPRP | -0.397
43 | RRIRRRPPRLPRPRPRPTKNPRP | 0.395
44 | RRIRFRPPRLPRPRPRPNWIPRP | -0.426
45 | RRIRWRPPRLPRPRPRPWPGPRP | 0.217
46 | RRIRIRPPRLPRPRPRPQTPPRP | -0.0927

Row | Sequence | shrunken log2 fold change
47 | RRIRHRPPRLPRPRPRPNMAPRP | -0.0808
48 | RRIRHRPPRLPRPRPRPDNQPRP | -0.0673
49 | RRIRGRPPRLPRPRPRPMYLPRP | 0.0702
50 | RRIRRRPPRLPRPRPRPLMIPRP | -0.258
51 | RRIRCRPPRLPRPRPRPGSQPRP | 0.0392
52 | RRIRNRPPRLPRPRPRPPRRPRP | 0.518
53 | RRIRDRPPRLPRPRPRPFSIPRP | 0.0044
54 | RRIRCRPPRLPRPRPRPDLNPRP | 0.127
55 | RRIRVRPPRLPRPRPRPEYSPRP | -0.273
56 | RRIRERPPRLPRPRPRPHNGPRP | 0.0109
57 | RRIRYRPPRLPRPRPRPRIAPRP | 0.00898
58 | RRIRTRPPRLPRPRPRPFHHPRP | -0.775
59 | RRIRTRPPRLPRPRPRPYSVPRP | -0.027
60 | RRIRFRPPRLPRPRPRPLYEPRP | -0.664
61 | RRIRMRPPRLPRPRPRPSQMPRP | 0.344
62 | RRIRTRPPRLPRPRPRPFVQPRP | -0.177
63 | RRIRCRPPRLPRPRPRPSRVPRP | 0.247
64 | RRIRERPPRLPRPRPRPNFAPRP | 0.387
65 | RRIRLRPPRLPRPRPRPDGCPRP | -0.0283
66 | RRIRPRPPRLPRPRPRPAMQPRP | 0.11
67 | RRIRMRPPRLPRPRPRPYNPPRP | -0.21
68 | RRIRERPPRLPRPRPRPMWAPRP | -0.122
69 | RRIRMRPPRLPRPRPRPPQCPRP | 0.566

Row | Sequence | shrunken log2 fold change
70 | RRIRHRPPRLPRPRPRPPRMPRP | 0.284
71 | RRIRSRPPRLPRPRPRPHEIPRP | -0.346
72 | RRIRMRPPRLPRPRPRPCDNPRP | 0.0146
73 | RRIRIRPPRLPRPRPRPEYEPRP | -0.0111
74 | RRIRERPPRLPRPRPRPSMFPRP | -0.723
75 | RRIRCRPPRLPRPRPRPMWMPRP | 0.174
76 | RRIRPRPPRLPRPRPRPFQFPRP | -0.467
77 | RRIRTRPPRLPRPRPRPQHSPRP | -0.183
78 | RRIRQRPPRLPRPRPRPKRSPRP | 0.0578
79 | RRIRQRPPRLPRPRPRPSYTPRP | -1.34
80 | RRIRARPPRLPRPRPRPMSEPRP | 0.337
81 | RRIRERPPRLPRPRPRPRCAPRP | 0.228
82 | RRIRPRPPRLPRPRPRPGSEPRP | 0.0814
83 | RRIRQRPPRLPRPRPRPFNYPRP | -0.304
84 | RRIRNRPPRLPRPRPRPQNWPRP | -0.146
85 | RRIRVRPPRLPRPRPRPRDWPRP | 0.274
86 | RRIRQRPPRLPRPRPRPTYPPRP | 0.0397
87 | RRIRCRPPRLPRPRPRPMYKPRP | -0.471
88 | RRIRHRPPRLPRPRPRPIPHPRP | -0.664
89 | RRIRQRPPRLPRPRPRPKPYPRP | -0.074
90 | RRIRIRPPRLPRPRPRPIFKPRP | -0.226
91 | RRIRKRPPRLPRPRPRPASLPRP | -0.23
